{
  "source": "paper PMC13186709",
  "binders": {"B1": {"name": "hSL2 (structured_RNA)", "RNA": "AACUUCGUUGGCUUAGUUUCCUGGCUUAUAUCCUGGAAACCCGUCGACGAGG"}, "B2": {"name": "2NUE RNA (structured_RNA)", "RNA": "AAGGGACAAGCGCAAGGUCAUUCGCAAGAGUGGCCUUGCGCUUGUCCC"}, "B3": {"name": "KSE (structured_RNA)", "RNA": "AAACCCAAUUGAACAUAUAGUGGAAUUAUUAUUAUCAAUGGGGAAUAUUUAACCC"}, "B4": {"name": "TLS-2xGCED1 (structured_RNA)", "RNA": "UUACACCACUUGAGGGUAUUUUUAAAUUAAUUCUUAAAAACUACACCUUAAGAUCACUCU"}, "B5": {"name": "TLS-GCED1/ED2 (structured_RNA)", "RNA": "UUACACCACUUGAGUGUAUUUUGAAAUUAAUUCUUCAAAACUACAACUUAAGAUCACUCU"}, "B6": {"name": "TLS-AUED1/ED2 (structured_RNA)", "RNA": "UUACACCACUUGAAUGUAUUUUAAAAUUAAUUCUUUAAAACUACAAUUUAAGAUCACUCU"}, "B7": {"name": "TLS-GCED2 (structured_RNA)", "RNA": "UUACACCACUUGAUUGUAUUUUGAAAUUAAUUCUUCAAAACUACAAAUUAAGAUCACUCU"}, "B8": {"name": "TLS-CGED1/ED2 (structured_RNA)", "RNA": "UUACACCACUUGACUGUAUUUUCAAAUUAAUUCUUGAAAACUACAAGUUAAGAUCACUCU"}, "B9": {"name": "TLS-2xGCED1+GCED2 (structured_RNA)", "RNA": "UUACACCACUUGAGGGUAUUUUGAAAUUAAUUCUUCAAAACUACACCUUAAGAUCACUCU"}, "B10": {"name": "TLS-KSE (structured_RNA)", "RNA": "GUCAAAGCUUACCUUGAUUGUAUUUUUAAAUUAAUUCUUAAAAACUACAAAUUAAGUUGCAAACAUGCGAAUCCUAAACUCGGUUCACAACUUCCCCAAUUGAACAUAUAGUGGAAUUAUUAUUAUCAAUGGGGAAUAUGCUAGC"}, "B11": {"name": "hSL1∆b (structured_RNA)", "RNA": "UGCGCGUAGACAUUUCACAUCAUUCGCCGGGAUUGGCAAAUGUUGUGAAGUGUUGCAAACAU"}, "B12": {"name": "TLS∆b (structured_RNA)", "RNA": "UUACACCACUUGAUUGUAUUUUUAAAUUAAUUCUUAAAAAUACAAUUAAGAUCACUCU"}, "B13": {"name": "GLS (MST) (structured_RNA)", "RNA": "AAAGUAAUUUUCGUGCUCUCAACAAUUGUCGCCGUCACAGAUUGUUGUUCGAGCCGAAUCUUACU"}, "B14": {"name": "bcdSLV (MST) (structured_RNA)", "RNA": "AAAAAUGUUUCUCUUGGGCGUAAUCUCAUACAAUGAUUACCCUUAAAGAUCGAACAUUU"}},
  "key": {"[1]": {"molecular_target": "T1, Egalitarian (Egl);Bicaudal D (BicD) (Drosophila melanogaster;Drosophila …, UniProt Q9W1K4;P16568 1-1004;1-782, |)", "T1 sequence (chain, as listed by the source |, chain 1 of 2)": "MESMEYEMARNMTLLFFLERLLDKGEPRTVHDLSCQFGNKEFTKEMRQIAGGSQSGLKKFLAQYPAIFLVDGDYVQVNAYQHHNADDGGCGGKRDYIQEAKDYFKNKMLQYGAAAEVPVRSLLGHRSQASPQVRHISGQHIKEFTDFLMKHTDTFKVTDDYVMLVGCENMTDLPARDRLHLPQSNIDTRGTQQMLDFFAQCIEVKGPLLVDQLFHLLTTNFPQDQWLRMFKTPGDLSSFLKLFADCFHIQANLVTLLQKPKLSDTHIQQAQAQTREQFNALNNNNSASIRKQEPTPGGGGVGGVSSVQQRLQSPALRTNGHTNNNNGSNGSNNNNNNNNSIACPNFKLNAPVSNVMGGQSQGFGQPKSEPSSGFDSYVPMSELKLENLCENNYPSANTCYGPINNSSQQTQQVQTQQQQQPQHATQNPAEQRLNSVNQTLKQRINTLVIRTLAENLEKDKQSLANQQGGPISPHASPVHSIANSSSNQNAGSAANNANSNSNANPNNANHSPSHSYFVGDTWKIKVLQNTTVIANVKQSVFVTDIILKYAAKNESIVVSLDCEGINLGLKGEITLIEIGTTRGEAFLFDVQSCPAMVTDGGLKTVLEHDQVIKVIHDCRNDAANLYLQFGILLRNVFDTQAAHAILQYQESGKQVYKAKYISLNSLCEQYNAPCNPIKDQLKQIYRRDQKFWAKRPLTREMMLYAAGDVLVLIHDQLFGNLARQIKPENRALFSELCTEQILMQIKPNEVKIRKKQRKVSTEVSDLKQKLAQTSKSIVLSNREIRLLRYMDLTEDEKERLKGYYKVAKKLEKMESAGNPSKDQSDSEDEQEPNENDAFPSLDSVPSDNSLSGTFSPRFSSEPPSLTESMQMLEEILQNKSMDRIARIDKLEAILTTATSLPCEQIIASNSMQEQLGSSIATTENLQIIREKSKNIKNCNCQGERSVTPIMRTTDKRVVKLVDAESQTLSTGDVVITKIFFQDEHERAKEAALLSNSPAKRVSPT", "T1 sequence (P16568 whole entry, chain 2 of 2)": "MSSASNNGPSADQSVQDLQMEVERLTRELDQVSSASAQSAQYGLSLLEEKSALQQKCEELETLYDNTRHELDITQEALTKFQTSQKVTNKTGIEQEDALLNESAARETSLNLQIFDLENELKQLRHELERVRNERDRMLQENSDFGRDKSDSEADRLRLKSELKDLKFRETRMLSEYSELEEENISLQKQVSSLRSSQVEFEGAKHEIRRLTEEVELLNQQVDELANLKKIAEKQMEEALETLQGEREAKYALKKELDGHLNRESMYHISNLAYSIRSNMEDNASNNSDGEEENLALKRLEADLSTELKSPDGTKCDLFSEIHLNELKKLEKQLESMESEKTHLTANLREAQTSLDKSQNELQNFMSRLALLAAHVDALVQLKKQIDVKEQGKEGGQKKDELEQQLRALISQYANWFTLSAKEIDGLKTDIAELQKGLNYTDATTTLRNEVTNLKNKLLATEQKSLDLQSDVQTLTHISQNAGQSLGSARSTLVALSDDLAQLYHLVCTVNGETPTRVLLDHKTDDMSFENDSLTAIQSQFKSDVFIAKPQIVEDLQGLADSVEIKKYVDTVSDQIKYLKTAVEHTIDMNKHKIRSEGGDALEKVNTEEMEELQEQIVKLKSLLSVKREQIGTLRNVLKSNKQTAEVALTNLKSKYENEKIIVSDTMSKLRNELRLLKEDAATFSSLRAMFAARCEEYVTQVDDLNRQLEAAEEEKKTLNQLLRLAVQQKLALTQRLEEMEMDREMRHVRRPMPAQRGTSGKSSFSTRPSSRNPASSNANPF", "assay": "MST; MST: 1 nM Cy5-RNA in GF150 (25 mM HEPES pH 7.3, 150 mM KCl, 1 mM MgCl2, 0.1 mM Mg-ATP, 5 mM DTT, 10% glycerol) + 0.05% Tween-20, 15 min, room temperature; Egl-BicD conc. as 2:2 complex", "conditions": "protein: recombinant;recombinant, tags: C-terminal TEV-ZZ (cleaved);, chain copies: 2;2, label: 5'-Cy5"}, "[2]": {"molecular_target": "T1, Egalitarian (Egl);Bicaudal D (BicD)", "assay": "MST; two experiments, different preps; MST: 1 nM Cy5-RNA in GF150 (25 mM HEPES pH 7.3, 150 mM KCl, 1 mM MgCl2, 0.1 mM Mg-ATP, 5 mM DTT, 10% glycerol) + 0.05% Tween-20, 15 min, room temperature; Egl-BicD conc. as 2:2 complex", "conditions": "protein: recombinant;recombinant; tags: C-terminal TEV-ZZ (cleaved);; chain copies: 2;2; label: 5'-Cy5; straight hairpin"}, "[3]": {"molecular_target": "T1, Egalitarian (Egl);Bicaudal D (BicD)", "assay": "single-molecule motility; with human dynein and pig dynactin; single RNA per motile complex; MST: 1 nM Cy5-RNA in GF150 (25 mM HEPES pH 7.3, 150 mM KCl, 1 mM MgCl2, 0.1 mM Mg-ATP, 5 mM DTT, 10% glycerol) + 0.05% Tween-20, 15 min, room temperature; Egl-BicD conc. as 2:2 complex", "conditions": "protein: recombinant;recombinant; tags: C-terminal TEV-ZZ (cleaved);; chain copies: 2;2; label: Cy3- or Cy5-UTP; two hairpins"}, "[4]": {"molecular_target": "T1, Egalitarian (Egl);Bicaudal D (BicD)", "assay": "MST; prep 4; MST: 1 nM Cy5-RNA in GF150 (25 mM HEPES pH 7.3, 150 mM KCl, 1 mM MgCl2, 0.1 mM Mg-ATP, 5 mM DTT, 10% glycerol) + 0.05% Tween-20, 15 min, room temperature; Egl-BicD conc. as 2:2 complex", "conditions": "protein: recombinant;recombinant; tags: C-terminal TEV-ZZ (cleaved);; chain copies: 2;2; label: 5'-Cy5; hairpin"}},
  "data": [
    {"binder": "B1", "values": [
      {"measurement": "Kd", "setting": "[1]; hairpin with bulges", "result": "603 ± 79", "unit": "nM"}
    ]},
    {"binder": "B2", "values": [
      {"measurement": "binding result", "setting": "[2]", "result": "no binding"}
    ]},
    {"binder": "B3", "values": [
      {"measurement": "Kd", "setting": "[1]; hairpin", "result": "507 ± 93", "unit": "nM"}
    ]},
    {"binder": "B4", "values": [
      {"measurement": "Kd", "setting": "[1]; hairpin with 3'-strand bulges", "result": "376 ± 154", "unit": "nM"}
    ]},
    {"binder": "B5", "values": [
      {"measurement": "Kd", "setting": "[1]; hairpin with 3'-strand bulges", "result": "4110 ± 1540", "unit": "nM"}
    ]},
    {"binder": "B6", "values": [
      {"measurement": "Kd", "setting": "[1]; hairpin with 3'-strand bulges", "result": "746 ± 91", "unit": "nM"}
    ]},
    {"binder": "B7", "values": [
      {"measurement": "Kd", "setting": "[1]; hairpin with 3'-strand bulges", "result": "425 ± 140", "unit": "nM"}
    ]},
    {"binder": "B8", "values": [
      {"measurement": "Kd", "setting": "[1]; hairpin with 3'-strand bulges", "result": "345 ± 34", "unit": "nM"}
    ]},
    {"binder": "B9", "values": [
      {"measurement": "Kd", "setting": "[1]; hairpin with 3'-strand bulges", "result": "1510 ± 210", "unit": "nM"}
    ]},
    {"binder": "B10", "values": [
      {"measurement": "binding result", "setting": "[3]", "result": "binds"}
    ]},
    {"binder": "B11", "values": [
      {"measurement": "Kd", "setting": "[1]; hairpin", "result": "204 ± 36", "unit": "nM"}
    ]},
    {"binder": "B12", "values": [
      {"measurement": "Kd", "setting": "[4]", "result": "2800 ± 510", "unit": "nM"}
    ]},
    {"binder": "B13", "values": [
      {"measurement": "Kd", "setting": "[1]; hairpin with bulges", "result": "39 ± 14", "unit": "nM"}
    ]},
    {"binder": "B14", "values": [
      {"measurement": "Kd", "setting": "[1]; hairpin with bulges", "result": "231 ± 64", "unit": "nM"}
    ]}
  ]
}
